One block for each binder: values may come before it.
Assays:
human Dectin-1 isoform A [1] = biological target: T1, human Dectin-1 isoform A (human, UniProt Q9BXN2 1-247); test: flow cytometry on HEK293F hDectin-1a FL cells
T1 construct: also called hDectin-1a; Dectin-1 on HEK-Blue hDectin-1a cells
T1 sequence: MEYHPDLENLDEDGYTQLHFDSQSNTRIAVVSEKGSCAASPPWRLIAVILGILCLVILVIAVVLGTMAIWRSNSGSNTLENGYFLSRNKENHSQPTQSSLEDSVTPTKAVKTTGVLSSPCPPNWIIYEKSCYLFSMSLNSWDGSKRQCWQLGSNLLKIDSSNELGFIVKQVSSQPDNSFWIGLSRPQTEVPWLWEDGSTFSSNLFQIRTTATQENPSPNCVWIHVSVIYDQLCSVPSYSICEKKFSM
Description: (§1) Binding of Dectin-1 antibodies to Dectin-1 expressing cells Dectin-1 expressing cells (HEK Blue hDectin-1-a, HEK Blue hDectin-1-b, HEK293F hDectin-1 a FL, human monocytes or cyno monocytes) were plated at 1×10⁵-2×10⁵ cells per well in non-tissue culture treated, 96 well V bottom plates. Additionally, human monocytes were incubated in human FcgR blocking antibody (Biolegend, San Diego, CA) for 10 minutes at room temperature to reduce binding of the antibodies to the Fc receptor.
(§2) For detection of mouse primary antibodies, the cells were incubated with a fluorescently labeled AF647 anti-mouse Fc-specific secondary antibody (Jackson Immuno). […] Data acquisition was performed using a CytoFlex flow cytometer (Beckman Coulter, Atlanta, GA) and analyzed using Graphpad Prism 8.4.

human Dectin-1 isoform A [2] = biological target: T1, human Dectin-1 isoform A; test: flow cytometry on HEK-Blue hDectin-1a cells
Description: as §1, §2

[3] = biological target: T2, cynomolgus monkey Dectin-1 expressed on monocytes (cynomolgus monkey, UniProt A0A2K5UXY6 35-281); test: flow cytometry, cynomolgus monocytes
T2 construct: whole, on cells; also called cynomolgus Dectin-1; cyno Dectin-1
T2 sequence: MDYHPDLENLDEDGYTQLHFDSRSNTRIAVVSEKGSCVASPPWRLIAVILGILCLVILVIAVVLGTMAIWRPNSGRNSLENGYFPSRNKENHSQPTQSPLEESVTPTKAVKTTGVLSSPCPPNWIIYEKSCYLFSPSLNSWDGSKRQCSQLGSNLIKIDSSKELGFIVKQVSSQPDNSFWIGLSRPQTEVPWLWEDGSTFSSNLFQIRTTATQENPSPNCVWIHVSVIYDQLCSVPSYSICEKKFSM
Description: as §1, §2
The binding was assessed by flow cytometry analysis of cynomolgus monkey monocytes derived from PBMCs.

human Dectin-1 isoform B [4] = biological target: T3, human Dectin-1 isoform B (human, UniProt Q9BXN2 1-247); test: flow cytometry on HEK-Blue hDectin-1b cells (summary table)
T3 construct: also called hDectin-1b; Dectin-1 on HEK Blue hDectin-1-b cells
T3 sequence: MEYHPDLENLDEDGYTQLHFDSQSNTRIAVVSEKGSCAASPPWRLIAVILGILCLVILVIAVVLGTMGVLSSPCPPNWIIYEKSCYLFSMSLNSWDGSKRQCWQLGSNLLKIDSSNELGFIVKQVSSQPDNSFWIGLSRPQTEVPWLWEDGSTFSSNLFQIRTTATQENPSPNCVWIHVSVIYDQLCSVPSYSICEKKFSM
Description: as §1, §2

human Dectin-1 isoform A [5] = biological target: T1, human Dectin-1 isoform A; test: flow cytometry on HEK-Blue hDectin-1a cells (summary table)
Description: as §1, §2

human Dectin-1 isoform A [6] = biological target: T1, human Dectin-1 isoform A; test: flow cytometry on HEK293F hDectin-1a FL cells (summary table)
Description: as §1, §2

human Dectin-1 isoform B [7] = biological target: T3, human Dectin-1 isoform B; test: flow cytometry on HEK-Blue hDectin-1b cells
Description: as §1, §2

human Dectin-1 isoform A [8] = biological target: T1, human Dectin-1 isoform A; test: flow cytometry, HEK-Blue hDectin-1a cells
Description: as §1, §2

Nectin-4 = biological target: T4, Nectin-4 (UniProt Q96NY8 32-510, limits assumed); test: flow cytometry on Nectin-4-expressing A431 cells (lower panel), AF647 goat anti-human IgG secondary, 4PL fit; curve still rising (about 92,000 MFI) at 300 nM, no plateau
T4 construct: whole, on cells; also called PVRL4; Nectin-4 on A431 cells
T4 sequence (looked up): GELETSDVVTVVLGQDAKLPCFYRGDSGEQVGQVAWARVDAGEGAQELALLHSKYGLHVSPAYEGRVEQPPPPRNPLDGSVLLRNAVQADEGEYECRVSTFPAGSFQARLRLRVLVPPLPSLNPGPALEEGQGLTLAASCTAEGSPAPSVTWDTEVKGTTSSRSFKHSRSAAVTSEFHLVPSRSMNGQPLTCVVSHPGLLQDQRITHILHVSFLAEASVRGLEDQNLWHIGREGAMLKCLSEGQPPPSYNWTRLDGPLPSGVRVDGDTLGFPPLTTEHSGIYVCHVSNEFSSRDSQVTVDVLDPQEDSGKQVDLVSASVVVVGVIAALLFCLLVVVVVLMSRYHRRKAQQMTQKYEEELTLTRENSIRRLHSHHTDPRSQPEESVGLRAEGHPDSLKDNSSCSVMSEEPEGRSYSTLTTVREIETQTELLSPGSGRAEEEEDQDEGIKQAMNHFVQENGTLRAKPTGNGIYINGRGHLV
Description: The secondary antibody (AF647 goat Anti-human IgG) was used for detection by flow cytometry. Binding EC50 values were determined using four parameter logistic (4PL) non-linear regression.

- EC50 (human Dectin-1 isoform A [1]): 1.1 nM
- EC50 (human Dectin-1 isoform A [2]): 0.4 nM
- EC50 [3]: 0.3 nM
- EC50 (human Dectin-1 isoform B [4]): 1 nM
- EC50 (human Dectin-1 isoform A [5]): 0.4 nM
- EC50 (human Dectin-1 isoform A [6]): 1.1 nM
- EC50 (human Dectin-1 isoform B [7]): 1 nM
B1: anti-human Dectin-1 antibody clone 2M24 (mIgG1) (antibody, V domains shown)
VH: QVQLVQSGAEVKKPGASVKVSCKSSGYTFTDYYIHWVRQAPGQGLEWMGWINPNSGDTNYAQKFQGRITMTRDTSISTAYLELSRLRSDDTAVFYCARNSGSYSFGYWGQGTLVTVSS
VL: DIQMTQSPSSVSASVGDRVTITCRASQGISSWLAWYQQKPGKAPKLLIFGASSLQSGVPSRFSGSGSGTDFTLTVSSLQPEDFATYYCQQAYSFPFTFGPGTKVDIE
notes: hybridoma antibody with human variable and mouse constant domains (mIgG1); also called 2M24 clone; mIgG1 2M24

- EC50 (human Dectin-1 isoform A [8]): 1.6 nM
B2: fully human 2M24 anti-Dectin-1 antibody (hIgG4) (antibody, V domains shown)
VH: B1 VH
VL: B1 VL
notes: human IgG4; also called 2M24 (hIgG4); hIgG4 2M24

- EC50 (Nectin-4): ~32 nM
B3: 2M24/Nectin-4 hIgG1 bispecific antibody (bispecific antibody, V domains shown)
VH 1: B1 VH
VL 1: B1 VL
VH 2: EVQLVESGGGLVQPGGSLRLSCAASGFTFSSYNMNWVRQAPGKGLEWVSYISSSSSTIYYADSVKGRFTISRDNAKNSLSLQMNSLRDEDTAVYYCARAYYYGMDVWGQGTTVTVSS
VL 2: DIQMTQSPSSVSASVGDRVTITCRASQGISGWLAWYQQKPGKAPKFLIYAASTLQSGVPSRFSGSGSGTDFTLTISSLQPEDFATYYCQQANSFPPTFGGGTKVEIK
notes: human IgG1; DuetMab mutations F126C and C220V (heavy), S121C and C214V (light)
